Experiments:
[1] = test system: supercoiled pT75; test: Relative transcription activity with different rNTP/dNTP mixes; type: biochemical
Method: (§1) Transcription reactions: Transcription reactions were carried out in 40 mM Tris-Cl pH 8.0, 15 mM MgCl2, and 5 mM DTT or 20 mM Manganese Citrate pH 8.0, 5 mM DTT at 37° C. Template, polymerase, and NTP concentrations were as indicated in the legends to the figures and tables. Relative activity determinations were made by taking 4 μl aliquots of reactions at 5, 10, and 20 minute time points and spotting on to DE81 filter paper. Unincorporated nucleotides were separated from incorporated nucleotides by washing the filter paper with 0.5 M KH2PO4 pH 7.0 and retained radioactive nucleotide was quantitated with a Molecular Dynamics phosphorimager. To evaluate rNTP/dNTP selectivity, reactions were run with 4 rNTPs and pT75 as template and α-P^32 rNTPs or α-P^32 dNTPs were used to label the transcripts. The relative rate of incorporation of an rNTP vs. its cognate dNTP was determined from the relative percentages of labeled rNTP vs. dNTP incorporated into DE81 retainable RNA at 5, 10, and 20 minute time points. Apparent miscoding frequencies were determined similarly, though in this instance the template was a single-stranded homopolymer and the reaction contained the complementary unlabeled rNTP, and complementary α-P^32 rNTP or one of the 3 non-complementary α-P^32 rNTPs. The relative percentages of labeled complementary vs. non-complementary rNTPs incorporated at 5, 10 and 20 minute time points gave an apparent miscoding rate. The rNTP/dNTP selectivity assay was used to test the following T7 RNAP mutants for effects on substrate discrimination: D537S, D537E, S539A, R5S1S, D552S, R627S, K631S, L637A, Y639S, Y639F, Y639A, G640A, F644A, G645A, Q649S, […], H811S, H811A, D812A, D812E, D812S, D812N, D879E+ΔF882+ΔA883, D879E+A881T+ΔA883, D879E+F884+A885, D879E+F882Y, D879E+ΔA883, D879E+F882W, D879E.
Relative activity of the W.T. and Y639F polymerases with different NTP combinations: The relative activities of the Y639F and W.T. polymerases with supercoiled pT75 as a template and various combinations of rNTPs/dNTPs were measured in both Mg^2+ and Mn^2+ buffers (see, Table II,).

[2] = test system: poly(dI)·poly(dC); test: Relative activity on poly(dI)·poly(dC); type: biochemical
Method: as §1
DNA and RNA synthesis on homopolymeric templates: T7 RNAP will synthesize poly(rG) RNAs on poly(dC) templates (Bonner, et al., 1994; Ikeda and Richardson 1987). The activity of the W.T. and mutant polymerases were measured on poly(dI)-poly(dC) with rGTP, dGTP, dGTP+rGMP (see, Table III).
Numbers give mean and range from 3 experiments. Templates were at 0.2 mg/ml, polymerases at 10^-8 M. Labeling NTPs were α-P^32 rGTP, α-P^32 dGTP, α-P^32 rATP, α-P^32 dATP, as appropriate. rNTPs or rNMPs at 0.5 mM; dNTPs at 1 mM.

[3] = 1 rNTP, dCTP, dATP, dGTP, with rGMP, Mg^2+
[4] = 1 rNTP, dCTP, dATP, dGTP, with rGMP, Mn^2+
[5] = 1 rNTP, dCTP, dATP, dTTP, Mg^2+
[6] = 1 rNTP, dCTP, dATP, dTTP, Mn^2+
[7] = 1 rNTP, dCTP, dATP, dUTP, Mg^2+
[8] = 1 rNTP, dCTP, dATP, dUTP, Mn^2+
[9] = 1 rNTP, dTTP, dATP, dGTP, with rGMP, Mg^2+
[10] = 1 rNTP, dTTP, dATP, dGTP, with rGMP, Mn^2+
[11] = 1 rNTP, dTTP, dCTP, dGTP, with rGMP, Mg^2+
[12] = 1 rNTP, dTTP, dCTP, dGTP, with rGMP, Mn^2+
[13] = 2 rNTPs, dATP, dGTP, rGMP, Mg^2+
[14] = 2 rNTPs, dATP, dGTP, rGMP, Mn^2+
[15] = 2 rNTPs, dCTP, dGTP, rGMP, Mg^2+
[16] = 2 rNTPs, dCTP, dGTP, rGMP, Mn^2+
[17] = 2 rNTPs, dTTP, dGTP, rGMP, Mg^2+
[18] = 2 rNTPs, dTTP, dGTP, rGMP, Mn^2+
[19] = rGTP, mean and range from 3 experiments

Substance: Y639F: T7 RNAP with wild-type tyrosine at position 639 substituted by phenylalanine
- Relative activity [1, 3]: 3-5
- Relative activity [1, 4]: 1-2
- Relative activity [1, 5]: 12-14
- Relative activity [1, 6]: .7-2
- Relative activity [1, 7]: 10-11
- Relative activity [1, 8]: 2-3
- Relative activity [1, 9]: 11
- Relative activity [1, 10]: 1.5-2
- Relative activity [1, 11]: 10-13
- Relative activity [1, 12]: 2-4
- Relative activity [1, 13]: 5-6
- Relative activity [1, 14]: 1-1.5
- Relative activity ([1]; 2 rNTPs, dATP, dTTP, Mg^2+): 11-14
- Relative activity ([1]; 2 rNTPs, dATP, dTTP, Mn^2+): 3-4
- Relative activity ([1]; 2 rNTPs, dCTP, dATP, Mg^2+): 20-29
- Relative activity ([1]; 2 rNTPs, dCTP, dATP, Mn^2+): 4-7
- Relative activity [1, 15]: 11-14
- Relative activity [1, 16]: 2-5
- Relative activity ([1]; 2 rNTPs, dCTP, dTTP, Mg^2+): 30
- Relative activity ([1]; 2 rNTPs, dCTP, dTTP, Mn^2+): 5
- Relative activity ([1]; 2 rNTPs, dCTP, dUTP, Mg^2+): 27-29
- Relative activity ([1]; 2 rNTPs, dCTP, dUTP, Mn^2+): 4-7
- Relative activity [1, 17]: 13-15
- Relative activity [1, 18]: 3-6
- Relative activity ([1]; 3 rNTPs, dATP, Mg^2+): 73
- Relative activity ([1]; 3 rNTPs, dATP, Mn^2+): 2-3
- Relative activity ([1]; 3 rNTPs, dCTP, Mg^2+): 86
- Relative activity ([1]; 3 rNTPs, dCTP, Mn^2+): 7-11
- Relative activity ([1]; 3 rNTPs, dGTP, rGMP, Mg^2+): 95-109
- Relative activity ([1]; 3 rNTPs, dGTP, rGMP, Mn^2+): 1.4-2.5
- Relative activity ([1]; 3 rNTPs, dGTP, Mg^2+): 43-63
- Relative activity ([1]; 3 rNTPs, dGTP, Mn^2+): 3
- Relative activity ([1]; 3 rNTPs, dTTP, Mg^2+): 90-96
- Relative activity ([1]; 3 rNTPs, dTTP, Mn^2+): 4
- Relative activity ([1]; 3 rNTPs, dUTP, Mg^2+): 82-91
- Relative activity ([1]; 3 rNTPs, dUTP, Mn^2+): 7-8
- Relative activity ([1]; 4 dNTPs, rGMP, Mg^2+): <.5
- Relative activity ([1]; 4 dNTPs, rGMP, Mn^2+): .5
- Relative activity ([1]; 4 rNTPs, Mg^2+): 200
- Relative activity ([1]; 4 rNTPs, Mn^2+): 9
- Relative activity on poly(dI)·poly(dC) ([2]; dGTP): 964 (684-1257)
- Relative activity on poly(dI)·poly(dC) ([2]; dGTP + rGMP): 1070 (816-1457)
- Relative activity on poly(dI)·poly(dC) [2, 19]: 1000

Substance: W.T.: wild-type T7 RNA polymerase [reference compound]
- Relative activity [1, 3]: <.5
- Relative activity [1, 4]: <.5
- Relative activity [1, 5]: <.5
- Relative activity [1, 6]: <.5
- Relative activity [1, 7]: <.5
- Relative activity [1, 8]: <.5
- Relative activity [1, 9]: <.5
- Relative activity [1, 10]: <.5
- Relative activity [1, 11]: <.5
- Relative activity [1, 12]: <.5
- Relative activity [1, 13]: <.5
- Relative activity [1, 14]: <.5
- Relative activity ([1]; 2 rNTPs, dATP, dTTP, Mg^2+): <.5
- Relative activity ([1]; 2 rNTPs, dATP, dTTP, Mn^2+): <.5
- Relative activity ([1]; 2 rNTPs, dCTP, dATP, Mg^2+): <.5
- Relative activity ([1]; 2 rNTPs, dCTP, dATP, Mn^2+): .5-.9
- Relative activity [1, 15]: <.5
- Relative activity [1, 16]: <.5
- Relative activity ([1]; 2 rNTPs, dCTP, dTTP, Mg^2+): 2
- Relative activity ([1]; 2 rNTPs, dCTP, dTTP, Mn^2+): 5-7
- Relative activity ([1]; 2 rNTPs, dCTP, dUTP, Mg^2+): 2-6
- Relative activity ([1]; 2 rNTPs, dCTP, dUTP, Mn^2+): 3
- Relative activity [1, 17]: <.5
- Relative activity [1, 18]: <.5
- Relative activity ([1]; 3 rNTPs, dATP, Mg^2+): 1-2
- Relative activity ([1]; 3 rNTPs, dATP, Mn^2+): 1-2
- Relative activity ([1]; 3 rNTPs, dCTP, Mg^2+): 4-9
- Relative activity ([1]; 3 rNTPs, dCTP, Mn^2+): 15
- Relative activity ([1]; 3 rNTPs, dGTP, rGMP, Mg^2+): <.5
- Relative activity ([1]; 3 rNTPs, dGTP, rGMP, Mn^2+): 1-3
- Relative activity ([1]; 3 rNTPs, dGTP, Mg^2+): <.5
- Relative activity ([1]; 3 rNTPs, dGTP, Mn^2+): .5-2
- Relative activity ([1]; 3 rNTPs, dTTP, Mg^2+): 11-13
- Relative activity ([1]; 3 rNTPs, dTTP, Mn^2+): 7-8
- Relative activity ([1]; 3 rNTPs, dUTP, Mg^2+): 9-11
- Relative activity ([1]; 3 rNTPs, dUTP, Mn^2+): 10-11
- Relative activity ([1]; 4 dNTPs, rGMP, Mg^2+): <.5
- Relative activity ([1]; 4 dNTPs, rGMP, Mn^2+): <.5
- Relative activity ([1]; 4 rNTPs, Mg^2+): 200
- Relative activity ([1]; 4 rNTPs, Mn^2+): 21-23
- Relative activity on poly(dI)·poly(dC) ([2]; dGTP): 7.4 (5.4-12.5)
- Relative activity on poly(dI)·poly(dC) ([2]; dGTP + rGMP): 25 (20-27)
- Relative activity on poly(dI)·poly(dC) [2, 19]: 1000
